From US20190233495A1 (Sanofi, published 2019) come the findings set out here.

Non-standard residues stand in square brackets, D forms with d. 1Nal = N[C@@H](Cc1cccc2ccccc12)C(=O)O; Nle = CCCC[C@H](N)C(=O)O; Aib = CC(C)(N)C(=O)O

This assay addresses T1, RXFP1 receptor (UniProt Q9HBX9 1-757, limits assumed).
T1 sequence (looked up): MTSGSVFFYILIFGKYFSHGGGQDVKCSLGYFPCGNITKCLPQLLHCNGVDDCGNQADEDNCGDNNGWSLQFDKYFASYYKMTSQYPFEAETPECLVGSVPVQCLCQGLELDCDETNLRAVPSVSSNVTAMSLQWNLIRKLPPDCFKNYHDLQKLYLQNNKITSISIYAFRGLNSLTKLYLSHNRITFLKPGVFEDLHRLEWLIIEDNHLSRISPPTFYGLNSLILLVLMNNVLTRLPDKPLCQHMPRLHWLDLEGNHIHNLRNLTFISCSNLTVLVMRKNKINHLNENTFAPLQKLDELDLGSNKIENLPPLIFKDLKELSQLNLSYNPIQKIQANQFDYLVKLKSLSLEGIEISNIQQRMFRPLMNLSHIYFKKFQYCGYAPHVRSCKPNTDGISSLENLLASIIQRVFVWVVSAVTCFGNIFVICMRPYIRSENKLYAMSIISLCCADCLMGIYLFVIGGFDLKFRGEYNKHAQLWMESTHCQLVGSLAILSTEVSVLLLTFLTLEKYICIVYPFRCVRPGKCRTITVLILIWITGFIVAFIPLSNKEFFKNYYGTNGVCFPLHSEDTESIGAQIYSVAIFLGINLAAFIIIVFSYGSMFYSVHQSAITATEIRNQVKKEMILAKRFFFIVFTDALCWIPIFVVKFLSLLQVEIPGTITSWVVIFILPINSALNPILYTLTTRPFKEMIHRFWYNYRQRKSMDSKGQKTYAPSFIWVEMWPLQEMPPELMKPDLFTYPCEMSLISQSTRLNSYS
Nature of the assay: cell-based or functional assay.

B1: SEQ ID NO: 43 (peptide)
peptide: Ac-LEGREKVRA[Aib]I[Aib][Aib]EGMSTWS[Aib]R-NH2
SMILES: CC[C@H](C)[C@H](NC(=O)C(C)(C)NC(=O)[C@H](C)NC(=O)[C@H](CCCNC(=N)N)NC(=O)[C@@H](NC(=O)[C@H](CCCCN)NC(=O)[C@H](CCC(=O)O)NC(=O)[C@H](CCCNC(=N)N)NC(=O)CNC(=O)[C@H](CCC(=O)O)NC(=O)[C@H](CC(C)C)NC(C)=O)C(C)C)C(=O)NC(C)(C)C(=O)NC(C)(C)C(=O)N[C@@H](CCC(=O)O)C(=O)NCC(=O)N[C@@H](CCSC)C(=O)N[C@@H](CO)C(=O)N[C@H](C(=O)N[C@@H](Cc1c[nH]c2ccccc12)C(=O)N[C@@H](CO)C(=O)NC(C)(C)C(=O)N[C@@H](CCCNC(=N)N)C(N)=O)[C@@H](C)O
For B1, the “cAMP assay in OVCAR 5 cells EC50” value was 190 nM and the “cAMP assay in OVCAR 5 cells Emax” value was found to be 104%.

B2: SEQ ID NO: 38 (peptide)
peptide: Ac-LEGREKVRAQI[Aib][Aib]EGMSKWSKR-NH2
SMILES: CC[C@H](C)[C@H](NC(=O)[C@H](CCC(N)=O)NC(=O)[C@H](C)NC(=O)[C@H](CCCNC(=N)N)NC(=O)[C@@H](NC(=O)[C@H](CCCCN)NC(=O)[C@H](CCC(=O)O)NC(=O)[C@H](CCCNC(=N)N)NC(=O)CNC(=O)[C@H](CCC(=O)O)NC(=O)[C@H](CC(C)C)NC(C)=O)C(C)C)C(=O)NC(C)(C)C(=O)NC(C)(C)C(=O)N[C@@H](CCC(=O)O)C(=O)NCC(=O)N[C@@H](CCSC)C(=O)N[C@@H](CO)C(=O)N[C@@H](CCCCN)C(=O)N[C@@H](Cc1c[nH]c2ccccc12)C(=O)N[C@@H](CO)C(=O)N[C@@H](CCCCN)C(=O)N[C@@H](CCCNC(=N)N)C(N)=O
For B2, the “cAMP assay in OVCAR 5 cells EC50” value turned out to be 10.7 nM and the “cAMP assay in OVCAR 5 cells Emax” value amounted to 102%.

B3: SEQ ID NO: 37 (peptide)
peptide: Ac-LEGREKVRAQI[Aib][Aib]EG[Nle]ST[1Nal]SKR-NH2
SMILES: CCCC[C@H](NC(=O)CNC(=O)[C@H](CCC(=O)O)NC(=O)C(C)(C)NC(=O)C(C)(C)NC(=O)[C@@H](NC(=O)[C@H](CCC(N)=O)NC(=O)[C@H](C)NC(=O)[C@H](CCCNC(=N)N)NC(=O)[C@@H](NC(=O)[C@H](CCCCN)NC(=O)[C@H](CCC(=O)O)NC(=O)[C@H](CCCNC(=N)N)NC(=O)CNC(=O)[C@H](CCC(=O)O)NC(=O)[C@H](CC(C)C)NC(C)=O)C(C)C)[C@@H](C)CC)C(=O)N[C@@H](CO)C(=O)N[C@H](C(=O)N[C@@H](Cc1cccc2ccccc12)C(=O)N[C@@H](CO)C(=O)N[C@@H](CCCCN)C(=O)N[C@@H](CCCNC(=N)N)C(N)=O)[C@@H](C)O
On to B3, for which the “cAMP assay in OVCAR 5 cells EC50” value stood at 52.4 nM and the “cAMP assay in OVCAR 5 cells Emax” value was 104%.

B4: SEQ ID NO: 42 (peptide)
peptide: Ac-LEGREKVR[Aib]QI[Aib][Aib]EGMSTWS[Aib]R-NH2
SMILES: CC[C@H](C)[C@H](NC(=O)[C@H](CCC(N)=O)NC(=O)C(C)(C)NC(=O)[C@H](CCCNC(=N)N)NC(=O)[C@@H](NC(=O)[C@H](CCCCN)NC(=O)[C@H](CCC(=O)O)NC(=O)[C@H](CCCNC(=N)N)NC(=O)CNC(=O)[C@H](CCC(=O)O)NC(=O)[C@H](CC(C)C)NC(C)=O)C(C)C)C(=O)NC(C)(C)C(=O)NC(C)(C)C(=O)N[C@@H](CCC(=O)O)C(=O)NCC(=O)N[C@@H](CCSC)C(=O)N[C@@H](CO)C(=O)N[C@H](C(=O)N[C@@H](Cc1c[nH]c2ccccc12)C(=O)N[C@@H](CO)C(=O)NC(C)(C)C(=O)N[C@@H](CCCNC(=N)N)C(N)=O)[C@@H](C)O
Consider B4, for which the “cAMP assay in OVCAR 5 cells EC50” value came out at 251 nM and the “cAMP assay in OVCAR 5 cells Emax” value was 104%.

B5: SEQ ID NO: 4 (peptide)
peptide: Ac-LEGREKVRAQI[Aib][Aib]EGMSTWS[Aib]RKK-NH2
SMILES: CC[C@H](C)[C@H](NC(=O)[C@H](CCC(N)=O)NC(=O)[C@H](C)NC(=O)[C@H](CCCNC(=N)N)NC(=O)[C@@H](NC(=O)[C@H](CCCCN)NC(=O)[C@H](CCC(=O)O)NC(=O)[C@H](CCCNC(=N)N)NC(=O)CNC(=O)[C@H](CCC(=O)O)NC(=O)[C@H](CC(C)C)NC(C)=O)C(C)C)C(=O)NC(C)(C)C(=O)NC(C)(C)C(=O)N[C@@H](CCC(=O)O)C(=O)NCC(=O)N[C@@H](CCSC)C(=O)N[C@@H](CO)C(=O)N[C@H](C(=O)N[C@@H](Cc1c[nH]c2ccccc12)C(=O)N[C@@H](CO)C(=O)NC(C)(C)C(=O)N[C@@H](CCCNC(=N)N)C(=O)N[C@@H](CCCCN)C(=O)N[C@@H](CCCCN)C(N)=O)[C@@H](C)O
For the molecule B5, the “cAMP assay in OVCAR 5 cells EC50” value came to 14.1 nM and the “cAMP assay in OVCAR 5 cells Emax” value worked out at 99%.

B6: SEQ ID NO: 35 (peptide)
peptide: Ac-LEGREKVRAQI[Aib][Aib]EGQSTWS[Aib]RKK-NH2
SMILES: CC[C@H](C)[C@H](NC(=O)[C@H](CCC(N)=O)NC(=O)[C@H](C)NC(=O)[C@H](CCCNC(=N)N)NC(=O)[C@@H](NC(=O)[C@H](CCCCN)NC(=O)[C@H](CCC(=O)O)NC(=O)[C@H](CCCNC(=N)N)NC(=O)CNC(=O)[C@H](CCC(=O)O)NC(=O)[C@H](CC(C)C)NC(C)=O)C(C)C)C(=O)NC(C)(C)C(=O)NC(C)(C)C(=O)N[C@@H](CCC(=O)O)C(=O)NCC(=O)N[C@@H](CCC(N)=O)C(=O)N[C@@H](CO)C(=O)N[C@H](C(=O)N[C@@H](Cc1c[nH]c2ccccc12)C(=O)N[C@@H](CO)C(=O)NC(C)(C)C(=O)N[C@@H](CCCNC(=N)N)C(=O)N[C@@H](CCCCN)C(=O)N[C@@H](CCCCN)C(N)=O)[C@@H](C)O
In the case of B6, the “cAMP assay in OVCAR 5 cells EC50” value worked out at 15.8 nM.

B7: SEQ ID NO: 41 (peptide)
peptide: Ac-LEGREKVRAQI[Aib][Aib]EGMSTWS[Aib]R-NH2
SMILES: CC[C@H](C)[C@H](NC(=O)[C@H](CCC(N)=O)NC(=O)[C@H](C)NC(=O)[C@H](CCCNC(=N)N)NC(=O)[C@@H](NC(=O)[C@H](CCCCN)NC(=O)[C@H](CCC(=O)O)NC(=O)[C@H](CCCNC(=N)N)NC(=O)CNC(=O)[C@H](CCC(=O)O)NC(=O)[C@H](CC(C)C)NC(C)=O)C(C)C)C(=O)NC(C)(C)C(=O)NC(C)(C)C(=O)N[C@@H](CCC(=O)O)C(=O)NCC(=O)N[C@@H](CCSC)C(=O)N[C@@H](CO)C(=O)N[C@H](C(=O)N[C@@H](Cc1c[nH]c2ccccc12)C(=O)N[C@@H](CO)C(=O)NC(C)(C)C(=O)N[C@@H](CCCNC(=N)N)C(N)=O)[C@@H](C)O
Consider B7, for which the “cAMP assay in OVCAR 5 cells EC50” value was determined as 45 nM and the “cAMP assay in OVCAR 5 cells Emax” value was found to be 106%.

B8: SEQ ID NO: 34 (peptide)
peptide: Ac-LEGREKVRK(Ac)[Aib]I[Aib][Aib]EG[Nle]STWS[Aib]RKK-NH2
SMILES: CCCC[C@H](NC(=O)CNC(=O)[C@H](CCC(=O)O)NC(=O)C(C)(C)NC(=O)C(C)(C)NC(=O)[C@@H](NC(=O)C(C)(C)NC(=O)[C@H](CCCCNC(C)=O)NC(=O)[C@H](CCCNC(=N)N)NC(=O)[C@@H](NC(=O)[C@H](CCCCN)NC(=O)[C@H](CCC(=O)O)NC(=O)[C@H](CCCNC(=N)N)NC(=O)CNC(=O)[C@H](CCC(=O)O)NC(=O)[C@H](CC(C)C)NC(C)=O)C(C)C)[C@@H](C)CC)C(=O)N[C@@H](CO)C(=O)N[C@H](C(=O)N[C@@H](Cc1c[nH]c2ccccc12)C(=O)N[C@@H](CO)C(=O)NC(C)(C)C(=O)N[C@@H](CCCNC(=N)N)C(=O)N[C@@H](CCCCN)C(=O)N[C@@H](CCCCN)C(N)=O)[C@@H](C)O
B8: the “cAMP assay in OVCAR 5 cells EC50” value amounted to 68.7 nM and the “cAMP assay in OVCAR 5 cells Emax” value is 96%.

B9: SEQ ID NO: 36 (peptide)
peptide: Ac-LEGREKVRAQI[Aib][Aib]EG[Nle]SK[1Nal]SKR-NH2
SMILES: CCCC[C@H](NC(=O)CNC(=O)[C@H](CCC(=O)O)NC(=O)C(C)(C)NC(=O)C(C)(C)NC(=O)[C@@H](NC(=O)[C@H](CCC(N)=O)NC(=O)[C@H](C)NC(=O)[C@H](CCCNC(=N)N)NC(=O)[C@@H](NC(=O)[C@H](CCCCN)NC(=O)[C@H](CCC(=O)O)NC(=O)[C@H](CCCNC(=N)N)NC(=O)CNC(=O)[C@H](CCC(=O)O)NC(=O)[C@H](CC(C)C)NC(C)=O)C(C)C)[C@@H](C)CC)C(=O)N[C@@H](CO)C(=O)N[C@@H](CCCCN)C(=O)N[C@@H](Cc1cccc2ccccc12)C(=O)N[C@@H](CO)C(=O)N[C@@H](CCCCN)C(=O)N[C@@H](CCCNC(=N)N)C(N)=O
B9: the “cAMP assay in OVCAR 5 cells EC50” value worked out at 127 nM and the “cAMP assay in OVCAR 5 cells Emax” value was found to be 103%.

B10: SEQ ID NO: 40 (peptide)
peptide: Ac-LEGREKVRAQI[Aib][Aib]EGMSTWSKR-NH2
SMILES: CC[C@H](C)[C@H](NC(=O)[C@H](CCC(N)=O)NC(=O)[C@H](C)NC(=O)[C@H](CCCNC(=N)N)NC(=O)[C@@H](NC(=O)[C@H](CCCCN)NC(=O)[C@H](CCC(=O)O)NC(=O)[C@H](CCCNC(=N)N)NC(=O)CNC(=O)[C@H](CCC(=O)O)NC(=O)[C@H](CC(C)C)NC(C)=O)C(C)C)C(=O)NC(C)(C)C(=O)NC(C)(C)C(=O)N[C@@H](CCC(=O)O)C(=O)NCC(=O)N[C@@H](CCSC)C(=O)N[C@@H](CO)C(=O)N[C@H](C(=O)N[C@@H](Cc1c[nH]c2ccccc12)C(=O)N[C@@H](CO)C(=O)N[C@@H](CCCCN)C(=O)N[C@@H](CCCNC(=N)N)C(N)=O)[C@@H](C)O
B10: the “cAMP assay in OVCAR 5 cells EC50” value was 31.9 nM and the “cAMP assay in OVCAR 5 cells Emax” value came to 103%.
